This is an account of results in the Immune Epitope Database (IEDB).

Test [1] concerns the target HLA-C*14:02. Nature of the test: IEDB peptide-MHC binding, purified MHC/direct/fluorescence; filed as Kd, often an IC50 or EC50 that approximates it; ≥ and ≤ were set here for values at or beyond the usual limits of such assays.
Test [2] has as its target HLA-A*03:01. Described as above.
Test [3] deals with HLA-A*11:01. The test is described as above.
The target in test [4] is HLA-B*35:01. Nature of the test: IEDB peptide-MHC binding, purified MHC/competitive/fluorescence; filed as Kd, often an IC50 or EC50 that approximates it; ≥ and ≤ were set here for values at or beyond the usual limits of such assays. The settings on record: source organism: Francisella tularensis subsp. tularensis FSC198.
The target of test [5] is HLA-B*58:01. Nature of the test: IEDB peptide-MHC binding, purified MHC/direct/fluorescence; filed as Kd, often an IC50 or EC50 that approximates it; ≥ and ≤ were set here for values at or beyond the usual limits of such assays.
For test [6], the target named is HLA-A*01:01. Described as above.
Test [7] addresses HLA-B*08:01. The description is as above.
Test [8] deals with HLA-A*02:01. Described as above.
The target in test [9] is HLA-A*26:01. The test is described as above.
Test [10] concerns the target HLA-A*24:03. The test is described as above.
In test [11] the target is HLA-B*44:02. Described as above. The settings on record: source organism: Vibrio cholerae.
Test [12] deals with HLA-B*40:01. Described as above.
Test [13] addresses HLA-B*07:02. Described as above.
For test [14], the target named is HLA-A*69:01. The test is described as above.
The target in test [15] is HLA-B*27:05. The test is described as above.
Test [16] deals with HLA-B*51:01. Nature of the test: IEDB peptide-MHC binding, purified MHC/competitive/fluorescence; filed as Kd, often an IC50 or EC50 that approximates it; ≥ and ≤ were set here for values at or beyond the usual limits of such assays. The note with it: source organism: Streptococcus pneumoniae TIGR4.
Test [17] concerns the target HLA-B*15:01. Described as above.
Test [18] addresses HLA-B*15:17. The description is as above. The settings on record: source organism: Streptococcus pneumoniae TIGR4.
Test [19] has as its target HLA-B*27:03. The test is described as above. The settings on record: source organism: Streptococcus pneumoniae TIGR4.
Test [20] addresses HLA-B*39:01. Described as above.
Test [21] concerns the target HLA-B*18:01. The description is as above. The settings on record: source organism: Streptococcus pneumoniae TIGR4.
Test [22] has as its target HLA-A*23:01. The description is as above. The settings on record: source organism: Streptococcus pneumoniae TIGR4.
Test [23] has as its target HLA-A*02:01. Described as above. The note with it: source organism: Streptococcus pneumoniae TIGR4.
In test [24] the target is HLA-A*26:01. The description is as above. The settings on record: source organism: Streptococcus pneumoniae TIGR4.
The target of test [25] is HLA-A*24:03. The description is as above. The note with it: source organism: Streptococcus pneumoniae TIGR4.
In test [26] the target is HLA-A*29:02. Described as above. The settings on record: source organism: Streptococcus pneumoniae TIGR4.
Test [27] concerns the target HLA-A*03:01. The test is described as above. The note with it: source organism: Streptococcus pneumoniae TIGR4.
Test [28] concerns the target HLA-A*69:01. Described as above. The settings on record: source organism: Streptococcus pneumoniae TIGR4.
For test [29], the target named is HLA-B*57:01. Described as above. The note with it: source organism: Streptococcus pneumoniae TIGR4.
Test [30] deals with HLA-B*46:01. The description is as above. The note with it: source organism: Streptococcus pneumoniae TIGR4.
Test [31] deals with HLA-A*02:03. The test is described as above. The settings on record: source organism: Human immunodeficiency virus 1.
Test [32] has as its target HLA-A*30:01. Described as above. The note with it: source organism: Human immunodeficiency virus 1.
The target of test [33] is HLA-A*02:06. The test is described as above. The note with it: source organism: Human immunodeficiency virus 1.
In test [34] the target is HLA-A*01:01. The test is described as above.
Test [35] deals with HLA-B*15:01. Nature of the test: IEDB peptide-MHC binding, purified MHC/direct/fluorescence; filed as Kd, often an IC50 or EC50 that approximates it; ≥ and ≤ were set here for values at or beyond the usual limits of such assays.
The target in test [36] is HLA-A*31:01. The description is as above.
The target of test [37] is HLA-B*35:01. The test is described as above.
Test [38] deals with HLA-B*07:02. The experiment in a line: IEDB peptide-MHC binding, purified MHC/competitive/fluorescence; ≥ and ≤ were set here for values at or beyond the usual limits of such assays. The settings on record: source organism: Zaire ebolavirus.
Where [39] appears, read: source organism: Francisella tularensis subsp. holarctica LVS.
Where [40] appears, read: source organism: Vibrio cholerae.
The mark [41] stands for this setting: source organism: Vibrio parahaemolyticus.
The mark [42] stands for this setting: source organism: Streptococcus pneumoniae TIGR4.
[43] abbreviates: source organism: Human immunodeficiency virus 1.
[44] abbreviates: source organism: Haemophilus influenzae.
Where [45] appears, read: source organism: Escherichia coli.

For AIYKNTIAY, the Kd in test [1] (source organism: Francisella tularensis subsp. tularensis FSC198) worked out at 0.118 µM; in test [2] (setting [39]), 0.0069 µM; in test [3] (setting [39]), 0.0239 µM; in [4], 0.0986 µM.

With AYYWNQNGF, the Kd was at least 20 µM in test [5] (setting [40]); at least 20 µM in test [6] (setting [40]); at most 0.001 µM in test [1] (source organism: Vibrio cholerae 2740-80); at least 20 µM in [7] (setting [40]); at least 20 µM in test [8] (setting [40]); at least 20 µM in test [9] (setting [40]). Further, the Kd is 0.00223 µM in [10] (setting [41]); at least 20 µM in test [11]; at least 20 µM in [12] (setting [40]); at least 20 µM in test [13] (setting [40]); at least 20 µM in [2] (setting [40]); at least 20 µM in test [14] (setting [40]). The Kd in test [3] (setting [41]) and in [15] (setting [40]) was at least 20 µM each time.

For the sequence CLSDEINHV, the Kd in test [16], in test [17] (setting [42]), in test [18], in test [19], in [20] (setting [42]) and in test [21] was at least 20 µM throughout. The dissociation constant (Kd) was at least 20 µM in test [22]; 0.0109 µM in test [23]; at least 20 µM in test [24]; at least 20 µM in test [25]; at least 20 µM in test [26]; at least 20 µM in test [27]. The dissociation constant (Kd) in test [28], in [29] and in [30] was at least 20 µM throughout.

For EKLKSLFNTV, the Kd was at least 20 µM in [17] (setting [43]); at least 20 µM in test [20] (setting [43]); at least 20 µM in test [31]; 1.14 µM in test [32]; 0.343 µM in test [33].

For KSVFNSLY, the dissociation constant (Kd) in test [34] (source organism: Influenza A virus (A/X-31(H3N2))) amounted to 1.47 µM.

As to LAEQFSGEY, the Kd in [5] (setting [44]) was at least 20 µM; in [6] (setting [44]) it was 0.247 µM; in test [35] (setting [44]), 0.374 µM; in test [7] (setting [44]), at least 20 µM; in test [8] (setting [44]), at least 20 µM; in test [9] (setting [44]) it was at least 20 µM. In addition, the dissociation constant (Kd) in test [36] (setting [44]) was at least 20 µM; in test [10] (setting [44]), at least 20 µM; in [12] (setting [44]), at least 20 µM; in [13] (setting [44]), at least 20 µM; in [37] (setting [44]), 0.0167 µM; in test [2] (setting [44]), at least 20 µM. The Kd in test [14] (setting [44]), in [3] (setting [44]) and in [15] (setting [44]) was at least 20 µM throughout.

Turning to LSTASSWSY, in test [34] (source organism: Influenza A virus (A/swine/Ohio/24366/2007(H1N1))), the dissociation constant Kd stood at 0.261 µM.

Consider SHDTIGPYY, for which the equilibrium dissociation constant (Kd) in test [5] (setting [45]), in test [6] (setting [45]), in [35] (setting [45]), in [7] (setting [45]), in test [8] (setting [45]) and in test [9] (setting [45]) was at least 20 µM each time. In addition, the dissociation constant Kd was at least 20 µM in test [36] (setting [45]); 2.92 µM in [12] (setting [45]); at least 20 µM in test [13] (setting [45]); 4.76 µM in test [37] (setting [45]); at least 20 µM in test [2] (setting [45]); at least 20 µM in test [14] (setting [45]). Besides, the Kd in test [3] (setting [45]) and in test [15] (setting [45]) was at least 20 µM in each case.

In turn, SPQSLTTKP returned a concentration for half-maximal inhibition (IC50) in test [38] of at least 188 µM.
